Measurements published in the nanobody polyreactivity screen of Harvey et al. (2022).

Assay: yeast display, Sf9 membrane polyspecificity reagent, FACS + sequencing; frameworks hold sequencing errors
In short: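 A nanobody's polyreactivity label depends on the gate it was sorted from. Yeast display cells were stained with 10% biotinylated, detergent-solubilized Sf9 membrane reagent for 1 hour at 4 °C, enriched on streptavidin microbeads and sorted by FACS. The low and high (top ~1%) gates were set on anti-HA fluorescence for expression and streptavidin fluorescence for reagent binding.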

| Sequence | polyreactivity (PSR sort gate) |
| --- | --- |
| QGQLVESGGCLVQAGGSRRLSCAASGRTFRGNAMGWYRQAPGKERELVPAISRRGGSTYYSDSVKGRFTISRDNAKITVYLQMNSLEPEDTADYYCARDDVDDNSYGNENGTYGYWGQGTQVTVSS | high polyreactivity |
| QGQLVESGGCLVQEGGSLRLSCAASGRIFWYYTMGWYRQAPGKERELVATIRSGDRKNYADSVKGRFTISLDNAKNTVYLQMNSLKPDDTAVYYCAATRALVNTHRYYYWGQGTQVTVSS | high polyreactivity |
| QGQLVESGGGFVQAGGSLRLSCAASGSTFRYYTMGWYRQAPGKEREFVAAITSSGTSTYYADSVKGRFTISRDIAKNTVYLQMNSLKPEDTAVYYCNKVGIYGSRSRYDSWGQGTQVTVSS | high polyreactivity |
| QGQLVESGGGLDQAGGSLRLSCAASGSTFPVYAMGLYRQAPGKDRELVAAITSGVSTNYADSVKGRFTISRDNAKNTVYVQKNSMKPEDTAVYYCAKEFGLLPIRDYYWGQGTQVTESS | low polyreactivity |
| QGQLVESGGGLLQAGGSLRLSCAASGRTFPYNALGWYRQAPGKERELVAAMSSGTRTDSADAVKGRFTISRDTAKNTVYLQMNSLKPEATAVYYWAADDYHYLWRADGFDYWGQGTQVTVSS | high polyreactivity |
| QGQLVESGGGLVHAGGSLRLSCAASGSIFTGNAMGWYIQAPGKEREMVAAITGRGGNTYYADSVKGRYTISRDNAKNTVYLQMMSLKPEETAGYYCAKVFFHTPIVPEYDYWGQGSQVTVSS | low polyreactivity |
| QGQLVESGGGLVQAGGRLRLSCAATGLTFAKNAMGWYRQAPGKEREMFAAIRSGDDTTYADSVKGRFTISRDNAKNTVYLQMNSLKPEDSAEYYCAARYYRTWDGRFGYWGQGTQVTVSS | high polyreactivity |
| QGQLVESGGGLVQAGGSLLLSCAASGRIFTGKAMGWSRQAPGKERELGAAIDWSGGSTYYADSVKGRFTISRDNAKNTVYLQMNSLKPEDTAVYYCNATYSNSAVGYLGFDYWGQGTQVTVSS | low polyreactivity |
| QGQLVESGGGLVQAGGSLRFSCADSGRIFHRYVMGWYRQAPGKERELVAAISWSSGSTSADSVKGRFTISRDNAKNTDYLQMNSLKPEDTAVYYCNASYNGVPARYDYWGQGTQVTVSS | low polyreactivity |
| QGQLVESGGGLVQAGGSLRIICAASANNFAKYAMGRYRQAPGKERELVAAISKRGGSTYYADSVKGRFTISRDNAKNTVYLQMNSLKPEETAVYYCAQRVLNYQRYDYWGQGTQVTVSS | high polyreactivity |
| QGQLVESGGGLVQAGGSLRITCAASGITFPYNAMGWYRQAPGTERELVAAITRSGASTYYADSVKGRFTISRDNSKNTVYVQMNSLKPEDTAVYYCAAKVIGRPRPYYYWGQGTQVTVSS | high polyreactivity |
| QGQLVESGGGLVQAGGSLRLSCAASGFTFARNVMGWSRQAPGTERELVAAITTSGGSTYYADSVKGRFTISRDNAKNTVYLQMNSLKPEDTAVYYCARRVYGYYIPYNYWGQGTQVTVSS | high polyreactivity |
| QGQLVESGGGLVQAGGSLRLSCAASGGIFKAYAMGWYRQAPGQERELVAVITIGGRTTYADSVKGRFTISRDNAKNTVYLQMNSLKPEDTAVYYCAKTNYNWLSTAEHDYWGQGTQVTVSS | low polyreactivity |
| QGQLVESGGGLVQAGGSLRLSCAASGGIFSDYAMGWYIQEPGKEREFVAAISVRGTSTDYADSVKGRFTISRDNAKNTVYLQMNSLKPEDTAVYYCNAQGAPQVRDVLPYEFDYWGQGTQVTVSS | low polyreactivity |
| QGQLVESGGGLVQAGGSLRLSCAASGGIFVGYPMGWYRQAPGKERELVASSDVRVGSTYYGDSVKGRFTISRDKAKNTVYLQMTSLKPEDTAVYSCEAGGRAVRIYWGYYRTSYDYWGLGTQVTVSS | low polyreactivity |
| QGQLVESGGGLVQAGGSLRLSCAASGGTFRAYVMGWSRQAPGKERELVADISRSGTRTYYADSVKGRFTISRDNAKNTVYLQMNSLKPEDTAVYYCAAAAKSWLFEYWGQGTQVTVSS | high polyreactivity |
| QGQLVESGGGLVQAGGSLRLSCAASGITVGVYARGRYRQEPGKEREFVADIDRTGGSTYAVSVKGRFTISRDIAKNTVYLQMNSLKPEDTAVYYCAAGWGFRFYYWYWGQGTQVTVSS | high polyreactivity |
| QGQLVESGGGLVQAGGSLRLSCAASGLTLYYYAMGWYIQAPGKERELVAAINRGGSTYYADSVKGRFTISRDNAKNTVYLQMNSLKPEDTAVYYCAVDYGVRDLTYYYWGQGTQVTVSS | low polyreactivity |
| QGQLVESGGGLVQAGGSLRLSCAASGNIFNRYGMGWSRQAPGKERELVAAISSSGTSPYYADSVKGRFTISRDYAKNTVYLQMNSLKPEDTAVYYCAASYPTRAWEYDYWGQGTQVTVSS | high polyreactivity |
| QGQLVESGGGLVQAGGSLRLSCAASGNTFGKNAMGWYRQAPGKERELVAAIRSSGGSTYYADSVKGRFTISRDNAKNTVYLQMNSLKPEDSAVYYCNADVIRQTDGYDYWGQGTLVTVSS | high polyreactivity |
| QGQLVESGGGLVQAGGSLRLSCAASGRIFPAYGMAWYRQAPGQERELVATIDNGGGTYYADSVKGRFTISRDNAKNTVYLQMNSLKPEDTAVYYCARDRHVRWGLKMDFWGQGTQVTVSS | low polyreactivity |
| QGQLVESGGGLVQAGGSLRLSCAASGRIFRIYAMGWYRQAPGKERELVARITYSGGSTYYADSVKGRFTISRDNAKNTVYLQMNSLKPEDTAVYYCAADWLGYQYGYWGQGTQVTVSW | low polyreactivity |

| Sequence | polyreactivity (PSR sort gate) |
| --- | --- |
| QGQLVESGGGLVQAGGSLRLSCAASGRTFFNNVMGWYRQAPGKERELVAAISKSGTRTYYADSVKGRFTISRDNAKNTVYLQMNSVKPEDTAVYYCATGQYLRTSRYYYWGHGTQVTVSS | high polyreactivity |
| QGQLVESGGGLVQAGGSLRLSCAASGRTFYANAMGWYRQAPGKERELVAAISTGGDGTYYADSVKGRFTISRDNAKNTVYLQMNSLKPEDAAVYYCAVRHRASGILYDYWGQGTQVTVSS | low polyreactivity |
| QGQLVESGGGLVQAGGSLRLSCAASGRTFYRNAMGWYRQAPGKEREFVAAITSIGGATYYADSVKGRFTISRDNAKNTVDLQMNSLKPEDTAVYYCAAKGFRYPEYDYWGQGTQVTVSS | low polyreactivity |
| QGQLVESGGGLVQAGGSLRLSCAASGSIFNTYAMGWYRQAPGKEREFVASISRSGGSTRYADSVKGRFTISRDNAKNTVYLQMNSLKPEDTEVYYSAARVPRGHVTYDSWGQGTKVTVSS | high polyreactivity |
| QGQLVESGGGLVQAGGSLRLSCAASGSIFPYYAMGWYRQAHGKERELVAVITTSGGRTYYADSVKGRFTISRDNAKNTVYLQMNSLKPADTAVYYCATDVRQGSGWRYYYWGQGTQVTVSS | high polyreactivity |
| QGQLVESGGGLVQAGGSLRLSCAASGSIFSLNSMGWYRQAPGKERELVAASGGGSTYYADSVKGRFTISRDNAKNTVYLQMNSLKTEDTAVYYCAGDQSFDYDFSHYYYWGQGTQVTVSS | low polyreactivity |
| QGQLVESGGGLVQAGGSLRLSCAASGSIFVINAMGWYRQAPGKERELVAAIDWGGDTTYYADSVKGRFTISRDNAKNTVYLQMNSLKPEDSAVYYCAAGYYLRRYYYWGQGTQVTVSS | high polyreactivity |
| QGQLVESGGGLVQAGGSLRLSCAASGSIFVYNVMGWYRQEPGKATELVADISKTAGRTYSADSVKGRFTISRDNAKNTVYLQINSLKPEDTAVSYCAVGNKRDAYYQYSSYGYWGQGTQVTVSS | low polyreactivity |
| QGQLVESGGGLVQAGGSLRLSCAASGSIFYINAMGWYRQAPGKERELVASISGGGGSTYYADSVKGRFTLSRDNAKNTVYLQMNSLKPEDTAVYYCNTVSRKDYDYWGQGTQVTVSS | high polyreactivity |
| QGQLVESGGGLVQAGGSLRLSCAASGSIYPLNVMGWYRQSPGKERELVATISKSGGSTYYADSVKGRITISRDNAKNTVYLQMNSLKPEDTGVYNCTVGRYVVGGTSVGYWGQGTQVSVSS | low polyreactivity |
| QGQLVESGGGLVQAGGSLRLSCAASGYIFDWYAMGWYRQAPGKEREFVAAISGSDGSTYYADSVKGRFTISRDNAKNTVYLQMNSLKPEDSAVYYCAADPYYGEMEYWGQGTQVTVSS | low polyreactivity |
| QGQLVESGGGLVQAGGSLRLSCAASGYIFLTNAMGWSREAPGKERVLVAAISWRGGRTYYADSVKGRFTISRDNAKNTVYLQMNSLKPEDTAVYYCNAVCEYYGKSDYWGQGTQVTVSS | low polyreactivity |
| QGQLVESGGGLVQAGGSLRLSCAASGYTFYANAMGWYRQAPGNEREFVASITWSGGSTYYADSVKGRFTLSRDNAKNTVYLQMNSLKPEDTAVSDCAAESWFKYDYWGQGTQVTVSS | low polyreactivity |
| QGQLVESGGGLVQAGGSLRLSCDASGRIFRKYDMGWYRQAPGKERELVAAISGTGITYYADSVKGRFTISRDNANNTVYLQMNSLKPEDTAVYYCARGSKPRALSWADPSATSIYDYWGQGTQVTVSS | low polyreactivity |
| QGQLVESGGGLVQAGGSLRLSCPASGRIFNTYAMGWYRQAPGKERELVAAINWSGGRTYYADSVKGRFTISRDNAKNTVYLQMNSLKPEDSAVYYCKARGRRRVPEFDYWGQGSQVTVSS | high polyreactivity |
| QGQLVESGGGLVQAGGSLRLSCPASGRIYVFYAMGRYRQATGKEREFVATISYSGDTTYYADSVKGRFTISRDNAKNTVYLQMNSLKPEDTAVYYCAADLVPSYYYVPMGYDSWGQGTQVTVSS | low polyreactivity |
| QGQLVESGGGLVQAGGSLRLSGAASGRTFRCNAMGWYRQAPGKERELVAAITSSGGRTYYADSVNGRFTISRDNAKNTVYLQMNSLKPEDTAVYYCAADAYQRGSGRYYEYDYWGQGTQVTVSS | high polyreactivity |
| QGQLVESGGGLVQAGGSLRLSSAASGNTFYGYAMGWYRQSPGKERELVASITLSGDSTYYADSVKGRFTISRDNAKNTVYLQMNSLKPEDTAVYYWAGVYTYPLGYYHYTYDYWGQGTQVTVSS | low polyreactivity |
| QGQLVESGGGLVQAGGSLSLSCAASGSIFPVYAMGWYRQAPGTEREFVARIRFSGGRTYYADSVQGRFTISRDNAKNTVYLQMNSLKPEDTAVYYCAKAQYRGRYGYWGQGTQVTVSS | high polyreactivity |
| QGQLVESGGGLVQAGGSLSLSCAASRFTFQRYAMGWDRQAPGKERELVAAISVSGGRTYYADSVKGRFTISRDNAKNSVYLQMNSLKPEDTAVYYCAAEGFLGWYYYWGQGNQVTVSS | high polyreactivity |
| QGQLVESGGGLVQAGGSRRLSCAASGRIFFYYAMGGYRQGPGQARELVAAISQSGASTYYADSVKGRFTISRDTAKNTVYLQMNSLKPEDTAVYYCNHKPYWYRDYYYWGQGTQVTVSS | high polyreactivity |
